Measurements reported in patent US9206239B2, “Treatment of cancers with immunostimulatory HIV Tat derivative polypeptides” (PIN Pharma, Inc., priority 2009, dated 2015).
Entries after “also recorded” stand apart in the source; their conditions may differ.

How the values were obtained:
4T1 cells = test: Repeated dosing of Nani-P2 alternating with cyclophosphamide in 4T1 tumor-bearing mice; assay type: in vivo, BALB/c mice; conditions: by day 42; 80 mg/kg IP weekly from day 10
Method: Four groups of 10 BALB/c mice were implanted with 1×10^4 4T1 cells SC into the mammary fat pad. Treatment was initiated when tumor diameters reached 4-5 mm, on day 10. Control mice were injected IV with PBS at 3 days intervals, while alternating treatment mice received 3 doses of drug every 3 days in rotating 10 day cycles. Tumor burden (tumor size mm^3) was calculated using a standard formula. CY: (cyclophosphamide alone) mice were injected IP weekly with 80 mg/kg per mouse beginning on day 10. Cy/Nani-P2: (cyclophosphamide first followed by Nani-P2) mice were first injected IP with cyclophosphamide (80 mg/kg) at 3 days intervals for three doses starting at day 10 and then injected IV with Nani-P2 (40 ng) at 3 days intervals for three doses in rotation. The cycle of 3 doses of CY followed by 3 doses of Nani-P2 was repeated until day 50. Nani-P2/CY: (Nani-P2 first followed by cyclophosphamide): mice were first injected IV with Nani-P2 (40 ng) at 3 day intervals for 3 doses starting on day 10 and then injected i.p. with cyclophosphamide at 3 day intervals in rotation. The cycle of 3 doses of Nani-P2 followed by 3 doses of CY was repeated until day 50.

4T1 breast tumor cells = test: 4T1 breast tumor growth in BALB/c mice; assay type: in vivo
From the text: Female BALB/c mice 6 to 8 weeks old were purchased from the Jackson Laboratory (Bar Harbor, […].). Mice were acclimated for at least 1 week before use. Mice were kept in pathogen-free conditions at the Animal Maintenance Facility of the Columbia University of Medical Center and all experiments were approved by the Institutional Animal Care and Use Committee of Columbia University of Medical Center.
4T1 cells, a 6-thioguanine-resistant cell line derived from a BALB/c spontaneous mammary carcinoma was obtained from ATCC; TS/A, a murine adenocarcinoma cell line was provided by Dr. Sandra Demaria (Demaria S. et al. Clin Cancer Res. 11:728-34, 2005); and SM1, the BALB/C-derived mammary carcinoma was kindly was provided by Dr. James Allison, University of California, Berkeley. All tumor cell lines were cultured in DMEM, supplemented with 2 mM L-glutamine, 10 mM HEPES, 150 units/ml penicillin/streptomycin, 10% heat-inactivated FCS (Invitrogen), 50 μM 2-mercaptoethanol (Sigma), and 50 mg/L gentamicin (Lanza).
BALB/c were injected (SC) with 1×10^4 4T1, 1×10^5 TS/A or 2×10^5 SM1 cells, respectively, in the left mammary pad on day 0. Immunotherapy was performed by directly injecting a Tat derivative into the right flank at 0, 7, 12, and 17 days after establishment of tumors. The control group received PBS injection. […] Tumor burden (tumor volume) was measured and recorded three times weekly. Animals were sacrificed when tumors reached a volume of 15 mm in diameter and the tumors harvested and weighed.
The therapeutic effect of systemic administration of synthetic, Tat-derived compositions in murine models of breast cancer was investigated. To compare the relative protection conferred by a small panel of different derivatives against primary breast tumor growth, female BALB/c mice were injected with 1×10^4 4T1 breast tumor cells SC into the mammary pad, and then treated with 400 ng partially-purified Tat derivatives at day 0, 7, 14 and 21 (SC injection in PBS) into the draining axillary lymph nodes.

Molecule: O=P1(N(CCCl)CCCl)NCCCO1 (stereo not drawn) [cyclophosphamide, reference compound]
- treated mice dead (4T1 cells): 10/10

B1: Nani-P3: HIV Tat derivative polypeptide, SEQ ID NO: 4; serine-rich TARA homology sequence replaces the SH3 binding sequence (protein)
chain: METPLKEQENSLESCREHSSSISEVDVPTPVSCLRKGGRCWNRCIGNTRQIGSCGVPFLKCCKRKPFTRKGLGISYGRKKRRQRRRAPQDSQTHQASLSKQPASQSRGDPTGPTESKKKVERETETDPFD
modifications: Nani-P3 modified HIV Tat sequence
- 4T1 primary tumor growth vs controls (4T1 breast tumor cells; 400 ng or 2 μg SC days 0, 7, 14, 21): less effective at suppressing 4T1 primary tumor growth; also recorded: no difference

B2: Nani-P1: HIV Tat derivative polypeptide, SEQ ID NO: 2; internal prolines of the SH3-binding site each substituted as alanine (protein)
chain: MEPVDANLEAWKHAGSQPRKTACTTCYCKKCCFHCQVCFTRKGLGISYGRKKRRQRRRAPQDSQTHQASLSKQPASQSRGDPTGPTESKKKVERETETDPFD
modifications: Nani-P1 modified HIV Tat sequence
- tumor burden compared to control mice receiving PBS (4T1 breast tumor cells; 400 ng partially-purified derivative SC day 0, 7, 14, 21, apparent from day 15 (p<0.05)): significantly reduced tumor burden
